Source: the NTF2 design screens of Basanta et al. (2020)

Experiment: protease stability score; higher = more stable; yeast display proteolysis, trypsin and chymotrypsin;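 also: relative to predicted unfolded state with 0 unfolded-like and 1 meaning tenfold more protease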

Row | Sequence | protease stability score
1 | REEEKMFTMILEIIKHSLVTGDEDLTRNLVDPNMRLEINGQEVHGREEILRVLLELRVKEMHIDDVKFQGDKAEIDGTLDIEWNGQEDHLKVEIIFRKINGRWHIESIRLE | 1.48
2 | SEEERRYELFLNLLREIMETGDEHRRSNLMDPHVRFDWNGVEFHGREMLEFIIERLHKEARLESYEIHRVTLIGDKIELRVREKRRVGNKIIEWDVIIIVRKIDGKWTIEEVEIR | 1.63
3 | SEEDKSFEIMFKLFKEASDTGDEKTLSELFDPDTRIDIGDKHLHGREEAVRMWRELRIHDIRVKSFDIIGNKIHLDTHVNGLVNGRLHRTDSKIILLKVNGQWRIESYHVD | 1.77
4 | DIEERDAEEAVRRWLHFLQTGDEDWLREQLDPNTRIDIDGREIHGMEEVVNVLLRESRHLGVDVLSFELRHVDRQGDKIIVYGRIRLRVNGRDTEIEVILYMVKVNGVWLMKSMEFR | 1.89
5 | DERDELVRQLMEWLVRAYITGDFETLKNLFDPNAKVRVNGRELIGMETFWQLLWHLRFTDHKIDSVEMQGEKVTVNVTLFIDVNGREETKKSHLIFVVVNGRLKSMDFRYE | 1.66
6 | SEKETLDQHIARLWVHYWLTGDEDQLHRLADPNVRSIVDGKHVHGMERMLTELKRMRERFDHMHIEIHDIKVFDGVIHIDTTLHVQINGVHRSWESRIIIYLINGRVHSVEIRIL | 1.16
7 | SEDERDAHRILDEEFEAIWTGDEHFLRELLDPNVQMDFNGVKLHGRHAFREIFRRFDWVDRIRLEEIRIFNGKVEIHIREDGFIDGRRTNTTSVFFMEKVDGRWKVRKMRIG | 1.66
8 | SEEEEKRRKSAEDFMRSLVTGDEDDLSRLADPHVRLDINGKEHHGMEEFKRLLSEFWEEMGIKHVRIRRIDIQGNKAILHTEVDWNGRIHEVTIDVQTYNGRIKSVKVIIH | 1.24
9 | DEEEEYAHRFVEDFIDAWLTGDEDRLEELMDPNVKIVVGDKVLVGRHLVIRLMHEWIRKYKGIKFVFHVKHLEAINGRLEIESEVDLRINGRKIKHTSKMVVRKIDGKWEIREFHLN | 2.38
10 | SEDEKIARDVIKLVLHAMRTGDEELFLKLADPNVRILFDGKELHGREEVIRFRERIDHFDIKRFDLRDMKIINGVMHVDVEIDGVLEVDGVRERRIEKVRWVVLKVDGRWRTHSIEIV | 2.69
11 | DEEEELARKSLEVWLKSSQTGDENHLEHMFDPNARLNIDGVELIGREHAKIWAKELRIHDIYPRRLRIQGNKLFLDLESDEEYNGKRTHFRRHLVMLKVNGVWIIESMHVE | 1.43
12 | REDDEMSEEANRLLHELVRTGDFEQLIKNMDPNTRLRQGDKHFHGREEYEKHWRELLERAGLERVELHIDDIRVFNGVAHINGTLRIGDKVMEVRLILTKFNGKWIFTSMEIH | 1.26
13 | DEEERLLHEAFEELVRVWETGDEEEKLRYMDPNTIIVINGVELHGREEARKHAHHLRIHRFHLKDYRFQGDKVHLDMHIDGFINGQKMRTDVRFQVHKIDGRWVITHSIWI | 1.71
14 | DEDDQWSEMLAKKYLDRVLTGDEKRMKSLLDPNVRLSVNGVDMHGREVFVHWLRTVLNRVDHQELRLRHLHSQGDKAHVDTEVIENWDGVKIVKETELEFIFVNGRFHSVFHRER | 0.267
15 | DEDEHLVRYLVEELIKFEQTGNEDEWNRLADPNVRIEINGVENHGREQYRKAFYEWRIHSLTVHHIRIDVQGEKALSIVDTETDGEYNGRQTRVKTNLIIHTKKVDGRWLVHSLVIKTE | 1.25
16 | EEEEENAKQFFHIWERSMRTGDEKTLHELADPHVRAVIGDKHHIGREEFHEVIRQTMEHIRVDDMILHTIMVYDGKVEILGRLVVRVGDKTHEVHVKIQVEKINGRWLLTELHIK | 0.074
17 | NELEEEAHRKMEKVLRHLQTGDEDSLHRLLDPNVRLIVGDKEMHGRERAVEVLSRILKEMGVKHIKLRRFSVFNGVAHTDSELNQGEYVHNLHLVIEKVDGQWVMRSLHIE | 1.41
18 | DEDHRIAHEIFRLLFHLLSTGDEDIFNQMADPHVQSIVGDKEFHGREQLRKAWHEIRVHRSDIHSVEIRVINGRVRNDMRIRYDGEINGKKIDTDIHMEVVIDKYNGRWIIRSVSIEII | 2.16
19 | DREKEFVKEFFTMLHNVLHTGDFKLFEKMLDPRYRVEIGDKEAHGREEVLRWFHEYMRIAGIDHIELHLHNFDYQGDKVRMDTIVILIQGDKTFHLDVRIVVKKIDGQWINQTERIH | 1.42
20 | DEVEELIEENRRFFEESWMTGDEDSLRKNADPNVRLKVGEFHLIGREAFETWARQAVHMDSIEIHHMHFFDGVVHSITHFDGKFNGRKERHSIYLVELKVNGRWLNHEIRLK | 0.511
21 | DEHEEHWREMFERWLFALITGDEETLHKLLDPNVKMDINGQHHVGREQVLHEFRKFHDVLGVKVSRNFHVKDKEVQGDKLHLTIEFRGEFNGKEEITQARIVIVKINGRWTIERVELE | 1.97
22 | DEETKRAEELMELWLHLLRTGDEELLSELMDPHVRLDINGVELHGREALLQWHHEHRRRIDHREIRVESRRIQGEKVEQHEDIIIHVNGVEFRHREFYEVVIIDGRFKELHIEHE | 0.546
23 | DEMDELAERIYETWVKRHLTGDEKVIEELMDPNVRIDIVVGDKKIHLIGRETASSFARRWFDHLRIDDMRMHSVETINGQIHSEVEVHRRIGDKERFILTRIEMHVINGKIHSIRLEIE | 1.1
24 | DEEDEELRRLLELLLRLYMTGDEHTLQTLADPHMKVRFHWDGREIRDHGRDALERHLKEWRVNDMDVNHFEAFNGRNMIDGILDGIINGVERRHKLELHFDLVNGRVKSVEIVLR | 1.08
25 | DELERDVKQVWDLLLESSRTGDEEVLDKMLDPNARMKVNGQESHGRHAVELLSERIDHIHHIEIERFRTQGNKIEIDIHIDGEVNGRRIRTHMHVIIRKIDGRWFVESWEMK | 0.931

Row | Sequence | protease stability score
26 | SEEEKEVQEYLERSIKDIRTGDEDELRRQLDPNYKLDVNGQKHIGMELWLKILSREVKEIRIDHVERHIEVINGRIDVKGELILNFNGREFRHHFEIHATKFNGRWVVDSMRVE | 1.15
27 | DEEEKLLEFLVEHIATILVTGDEDRWLTLADPDVKVIIDGRTFIGWEFLEELIHQIRIHRMRIRHFSFVNGRLVFIFSIDGTIGDKRDEHDTRYEMIKIDGRWRLKRVEIR | 1.48
28 | TEEEEIYERVARLWAEAMLTGDWKTETNLLDPHTRYDYDVDGKHIHLHGREHFKKMLEDLLRHLRFRIRVEEIHVYGEKVEVHGKLDIHVGDKTTHEHTSVQIYVVNGKMKSIRVHSH | 1.49
29 | KEEETHAREVSEANEHLLETGDWRRLSHLLDPNAKITINGRHFHGREFFTELQKRHEDMLGIKHRHIEDSTVVGDKVIIHTYYHVDGKTLDIEIIIVVINGRHERVEWRFK | 0.782
30 | DEDEEIIEKWVKMMLDAAHTGDERIIEENFDPNTRIHVDGQNHHGREHVHELRRRADYIRIILIIRSIRTQGDYVHVKGEIRIRINWNGRELHLEVEVEIIFLKFDGRWHIRSIVSI | 0.889
31 | SEEEEIAERFKKLMFEATHTGDWHTFMRLADPHVRVDINGKERHGREHWVEHERRLGIDHTDIRIRREREINGVMHIDSQLILHFNGVTLTLDHKLILKKVDGKWILHELKVD | -0.054
32 | SEEEHDTRRAIEIFLRIIMTGNEEDFERLFDPDARSEWNGVELHGREIITHIWLEIFDRFPNIKIEVRVERYRIQGEKVDIDMELIFRVGDKEDSRKTRMHVLKVDGKWTVKLFKIK | 2.33
33 | DEEREHSEEALLLLLHLIMTGDEEELIKNVDPNARITQGDKEFHGREVVIKHLFELMHRFGVKHFTVDHVEIFNGRLFIRFTLHFNGRKIDEHLILVKINGRWLLKSMEIK | 2.21
34 | DEDEKIIEDIIRKIWLAFMTGDEELYERLADPEDRLEVGEKTAVGREDVRRALHEWIRKLGIKHSHTRHMDFQGDKLIIHGEMLFNGRTFDLQLEFNVVNGRLKSMHVRIR | 1.58
35 | TEEDRETEKFLRILQEVHRTGDWRRFDEFLDPNVRIHIGDKEYHGREEFTRFFKEMGIDHHEVKHYRLVDGQLDLDVTERFNGVTVKTKLITHKFDGRWLITEIRVK | 1.19
36 | NEVDEWVEEAVHLLEEILETGDFRELSNYFDPRVRIDINGRDYHGRELALEQLLRWIEDLGVKHFDHYEIHDREIQGEKVNLNIEITLTFDGRRHTIHHNFHMEKVNGKWVIESIHIR | 1.19
37 | SESHHLAKHVVHLFMHAVSTGDEKLLRELLDPDVRVDINGVELIGMEDFQKWLHEWREHMHDSKVHRVRDYNGVLESDVKVRRVLIVDGVRLEEETHSEVIIVKINGRWHVKHVRYR | 1.26
38 | DEREELIQRFLEMLIHLYLTGDEDWFLRMADPNARLHWNGKDRHGREIILEELIRLLRRFDHVRIDVKKFEVQGDKVIADGLEIYTQGDKRIEVDTKIVLTTVNGKLKTLVWHID | 0.642
39 | DEDEKIIQQFLREHTETNDTGDENTFKKQLDPHARTIFNGREYHGREDAYRILKELGWSRFEFHLRHVDIQGEKLHVMGLLRVDGKWLDVEIVANKINGRWVLTEFHIN | 0.417
40 | DDDEKDLEKLIREVMEIIWTGDEDTFRHFMDPNTRLFIDGKIIVGMEEIMRRWHELLRKFGVDKIEVRLDDFKIIGNKIELHFEIMIGDKRFKTQTIFEKIDGRWILHSRFIH | 2.01
41 | DELDEELHKLFEKYLRSHLTGDFHSLERLLDPNARLIWIVDGKMINIHGREDISRFLREWEEEARHHHHELKEVDTQGNYFHSRMHEDGHINGVRRKIHVTHNIVMIDGKLESITHIII | 1.08
42 | DEDEKFTKEVIELWIRALRTGDEHTLMRLMDPHVRFEDENYSLHGREDVSRWLIKLLVHLRLEESDEHDSKIIGDKAHLHITSNHIFNGKELHMEIHIIVFKINGRWFVHEVRFR | 1.72
43 | SDAERHSQEVLRLWIKAAKTGDEDKFRNYIDPHVRVEINGKEIHGRDILLEEMRRRDVIRHVRVTDSRHYDGVVIMDVEVDGHVNGRDVETQTTSFIIKIDGKWVWQSFVQI | 0.98
44 | DDIKEETDHLVDLLMEDIITGNERRLSHLADPNVRFTVGDWHSHGRKEMVEALRFTLDRADHVEYQPHRIENQGDKATAVIRVKLEYNGRTEEFRLIFTMEKIDGKWIVHKIFYR | 0.976
45 | SEDEELFKRAIEKLIHDLLTGNFEMLEHLLDPHTRVDFNGKIMHGREFVEDIRERFPNLKLELRIDDSSVINGRANIIGTLHFNVNGKFSTHEVHYHVNKFNGKWYIEEVRIK | 1.32
46 | DHLEEIADKMAKDFIHIFLTGDEHLHNRLADPNVRLHVNGRDSHGRENWSRMLTQILREMRVKDIKITSSEVQGEWSVSRTRMNVDIDGKVEEIETEIIILVVNGKLESSTIVID | -0.103
47 | SEEEQHLEKMAEDLLHFILTGDEEAMRKMADPTVRLHLHIGDKEERYHGRRDVVRWFHEWVKKVKGMTIEIKRVKVFDGRIFVDGILEINGVKVRVHLITDVIDGKLTRTEERIE | 1.49
48 | SEEEEEIEKMVRHMIHNLLTGNEDVIDKFVDPHVQLHINGRDIHGRENIRREIRRTLEELGVDHWIVHHIEIRRVGDKAIAINHGTIVINGRNVDTEFIFWLHKVNGRWMVHSYEIRIR | 1.4
49 | HEMQEEAHIATELIIDTFKTGDEKKMRELFDPTPRLHQGDKRFHGREEVVHIISERIHRFGFNHIEVKTVRVQGDFIIVHGEKDVNGQRVEVILHIWKYDGRWEVHRIEIR | 1.23
50 | SEEEEMLKHALEILTEVTDTGNWEEYEKLLDPDVRVHIGDKTLVGMEEILRYWMEYFKSLGVDHVETRVKEISHQGDKMHMDTTLRIHQGDKDLEFHVEIHAEKVNGRWFIKEINFE | 1.75
